Starred links: 1 amine or outer side, 2 acyl side, 3 side chain; linkers in the order of their positions; H or OH if unused. Non-standard residues stand in square brackets, D forms with d. 3AzaTyrEtNAc = (2S)-3-[6-(2-acetamidoethoxy)-3-pyridyl]-2-amino-propanoic acid, CC(=O)NCCOc1ccc(C[C@H](N[*:1])C(=O)[*:2])cn1; 2PyrimAla = (2S)-2-amino-3-(pyrimidin-2-yl)propanoic acid, O=C([C@H](Cc1ncccn1)N[*:1])[*:2]; F4ptCCA = trans-4-[4-(2-amino-2-carboxyethyl)phenyl]cyclohexanecarboxylic acid; Phe(4-(cis-4-COOH-cHex)) = N[C@@H](Cc1ccc([C@H]2CC[C@@H](C(=O)O)CC2)cc1)C(=O)O; dPro(4R-(4-pyridylmethyl)) = O=C(O)[C@H]1C[C@@H](Cc2ccncc2)CN1; Ala(piperidin-4-yl) = O=C([C@H](CC1CCN([*:3])CC1)N[*:1])[*:2]; Trp(βS-Me,4-F) = C[C@@H](c1c[nH]c2cccc(F)c12)[C@H](N)C(=O)O; Bip(4'-COOH) = N[C@@H](Cc1ccc(-c2ccc(C(=O)O)cc2)cc1)C(=O)O; Ala(1-bicyclo(1.1.1)pentyl) = N[C@@H](CC12CC(C1)C2)C(=O)O; dPro(4R-Bzl(4-F)) = O=C(O)[C@H]1C[C@@H](Cc2ccc(F)cc2)CN1; Ala(piperazin-1-yl) = N[C@@H](CN1CCNCC1)C(=O)O; Ala(pyrimidin-5-yl) = N[C@@H](Cc1cncnc1)C(=O)O; Phe(4-COOH) = N[C@@H](Cc1ccc(C(=O)O)cc1)C(=O)O; Ala(4-Pyridazinyl) = N[C@@H](Cc1ccnnc1)C(=O)O; Ala(2-pyrazinyl) = N[C@@H](Cc1cnccn1)C(=O)O; Pro(cis-4-F) = O=C(O)[C@@H]1C[C@H](F)CN1; Ala(4-THP) = N[C@@H](CC1CCOCC1)C(=O)O; 4Pal = N[C@@H](Cc1ccncc1)C(=O)O; d(αMeS) = C[C@@](N)(CO)C(=O)O; Dab = NCC[C@H](N)C(=O)O; Aib = CC(C)(N)C(=O)O
biological target: Recombinant human IL-1β (BioLegend 579404) (human, UniProt P01584 117-269); assay: cell-based or functional assay

| Binder | MRC5 IC50 [nM] |
| --- | --- |
| cyclo([Bip(4'-COOH)][4Pal][Phe(4-COOH)]G[Pro(cis-4-F)][Trp(βS-Me,4-F)][Aib]EW[Aib][Ala(4-THP)]Q[Dab]G[dPro(4R-Bzl(4-F))]) (SMILES C[C@@H](c1c[nH]c2cccc(F)c12)[C@@H]1NC(=O)[C@@H]2C[C@H](F)CN2C(=O)CNC(=O)[C@H](Cc2ccc(C(=O)O)cc2)NC(=O)[C@H](Cc2ccncc2)NC(=O)[C@H](Cc2ccc(-c3ccc(C(=O)O)cc3)cc2)NC(=O)[C@H]2C[C@@H](Cc3ccc(F)cc3)CN2C(=O)CNC(=O)[C@H](CCN)NC(=O)[C@H](CCC(N)=O)NC(=O)[C@H](CC2CCOCC2)NC(=O)C(C)(C)NC(=O)[C@H](Cc2c[nH]c3ccccc23)NC(=O)[C@H](CCC(=O)O)NC(=O)C(C)(C)NC1=O) [SEQ ID NO: 118] | 0.016 |
| cyclo([Bip(4'-COOH)][4Pal][Phe(4-COOH)]G[Pro(cis-4-F)][Trp(βS-Me,4-F)][Aib]EW[Aib][2PyrimAla]Q[Dab]G[dPro(4R-Bzl(4-F))]) (SMILES C[C@@H](c1c[nH]c2cccc(F)c12)[C@@H]1NC(=O)[C@@H]2C[C@H](F)CN2C(=O)CNC(=O)[C@H](Cc2ccc(C(=O)O)cc2)NC(=O)[C@H](Cc2ccncc2)NC(=O)[C@H](Cc2ccc(-c3ccc(C(=O)O)cc3)cc2)NC(=O)[C@H]2C[C@@H](Cc3ccc(F)cc3)CN2C(=O)CNC(=O)[C@H](CCN)NC(=O)[C@H](CCC(N)=O)NC(=O)[C@H](Cc2ncccn2)NC(=O)C(C)(C)NC(=O)[C@H](Cc2c[nH]c3ccccc23)NC(=O)[C@H](CCC(=O)O)NC(=O)C(C)(C)NC1=O) [SEQ ID NO: 113] | 0.018 |
| cyclo([Phe(4-(cis-4-COOH-cHex))][4Pal][Phe(4-COOH)]G[Pro(cis-4-F)][Trp(βS-Me,4-F)][Aib]EW[Aib][Ala(2-pyrazinyl)]Q[Dab]G[dPro(4R-Bzl(4-F))]) (SMILES C[C@@H](c1c[nH]c2cccc(F)c12)[C@@H]1NC(=O)[C@@H]2C[C@H](F)CN2C(=O)CNC(=O)[C@H](Cc2ccc(C(=O)O)cc2)NC(=O)[C@H](Cc2ccncc2)NC(=O)[C@H](Cc2ccc([C@H]3CC[C@@H](C(=O)O)CC3)cc2)NC(=O)[C@H]2C[C@@H](Cc3ccc(F)cc3)CN2C(=O)CNC(=O)[C@H](CCN)NC(=O)[C@H](CCC(N)=O)NC(=O)[C@H](Cc2cnccn2)NC(=O)C(C)(C)NC(=O)[C@H](Cc2c[nH]c3ccccc23)NC(=O)[C@H](CCC(=O)O)NC(=O)C(C)(C)NC1=O) [SEQ ID NO: 117] | 0.027 |
| cyclo([Bip(4'-COOH)][Ala(1-bicyclo(1.1.1)pentyl)][Phe(4-COOH)]G[Pro(cis-4-F)][Trp(βS-Me,4-F)][Aib]EW[Aib][Ala(pyrimidin-5-yl)]Q[Dab]G[dPro(4R-Bzl(4-F))]) (SMILES C[C@@H](c1c[nH]c2cccc(F)c12)[C@@H]1NC(=O)[C@@H]2C[C@H](F)CN2C(=O)CNC(=O)[C@H](Cc2ccc(C(=O)O)cc2)NC(=O)[C@H](CC23CC(C2)C3)NC(=O)[C@H](Cc2ccc(-c3ccc(C(=O)O)cc3)cc2)NC(=O)[C@H]2C[C@@H](Cc3ccc(F)cc3)CN2C(=O)CNC(=O)[C@H](CCN)NC(=O)[C@H](CCC(N)=O)NC(=O)[C@H](Cc2cncnc2)NC(=O)C(C)(C)NC(=O)[C@H](Cc2c[nH]c3ccccc23)NC(=O)[C@H](CCC(=O)O)NC(=O)C(C)(C)NC1=O) [SEQ ID NO: 13] | 0.022 |
| cyclo([Bip(4'-COOH)][Ala(4-Pyridazinyl)][Phe(4-COOH)]G[Pro(cis-4-F)][Trp(βS-Me,4-F)][Aib]EW[Aib][Ala(pyrimidin-5-yl)]Q[Dab]G[dPro(4R-Bzl(4-F))]) (SMILES C[C@@H](c1c[nH]c2cccc(F)c12)[C@@H]1NC(=O)[C@@H]2C[C@H](F)CN2C(=O)CNC(=O)[C@H](Cc2ccc(C(=O)O)cc2)NC(=O)[C@H](Cc2ccnnc2)NC(=O)[C@H](Cc2ccc(-c3ccc(C(=O)O)cc3)cc2)NC(=O)[C@H]2C[C@@H](Cc3ccc(F)cc3)CN2C(=O)CNC(=O)[C@H](CCN)NC(=O)[C@H](CCC(N)=O)NC(=O)[C@H](Cc2cncnc2)NC(=O)C(C)(C)NC(=O)[C@H](Cc2c[nH]c3ccccc23)NC(=O)[C@H](CCC(=O)O)NC(=O)C(C)(C)NC1=O) [SEQ ID NO: 116] | 0.04 |
| cyclo([Bip(4'-COOH)][Ala(1-bicyclo(1.1.1)pentyl)][Phe(4-COOH)]G[Pro(cis-4-F)][Trp(βS-Me,4-F)][Aib]SW[d(αMeS)][Ala(pyrimidin-5-yl)]Q[Dab]G[dPro(4R-(4-pyridylmethyl))]) (SMILES C[C@@H](c1c[nH]c2cccc(F)c12)[C@@H]1NC(=O)[C@@H]2C[C@H](F)CN2C(=O)CNC(=O)[C@H](Cc2ccc(C(=O)O)cc2)NC(=O)[C@H](CC23CC(C2)C3)NC(=O)[C@H](Cc2ccc(-c3ccc(C(=O)O)cc3)cc2)NC(=O)[C@H]2C[C@@H](Cc3ccncc3)CN2C(=O)CNC(=O)[C@H](CCN)NC(=O)[C@H](CCC(N)=O)NC(=O)[C@H](Cc2cncnc2)NC(=O)[C@@](C)(CO)NC(=O)[C@H](Cc2c[nH]c3ccccc23)NC(=O)[C@H](CO)NC(=O)C(C)(C)NC1=O) [SEQ ID NO: 112] | 0.018 |
| cyclo([3AzaTyrEtNAc][4Pal][Phe(4-COOH)]G[Pro(cis-4-F)][Trp(βS-Me,4-F)][Aib]EW[Aib][Ala(pyrimidin-5-yl)]Q[Dab]G[dPro(4R-Bzl(4-F))]) (SMILES CC(=O)NCCOc1ccc(C[C@@H]2NC(=O)[C@H]3C[C@@H](Cc4ccc(F)cc4)CN3C(=O)CNC(=O)[C@H](CCN)NC(=O)[C@H](CCC(N)=O)NC(=O)[C@H](Cc3cncnc3)NC(=O)C(C)(C)NC(=O)[C@H](Cc3c[nH]c4ccccc34)NC(=O)[C@H](CCC(=O)O)NC(=O)C(C)(C)NC(=O)[C@H]([C@@H](C)c3c[nH]c4cccc(F)c34)NC(=O)[C@@H]3C[C@H](F)CN3C(=O)CNC(=O)[C@H](Cc3ccc(C(=O)O)cc3)NC(=O)[C@H](Cc3ccncc3)NC2=O)cn1) [SEQ ID NO: 12] | 0.072 |
| cyclo([Bip(4'-COOH)][4Pal][Phe(4-COOH)]G[Pro(cis-4-F)][Trp(βS-Me,4-F)][Aib]EW[Aib][Ala(pyrimidin-5-yl)]Q[Dab]G[dPro(4R-(4-pyridylmethyl))]) (SMILES C[C@@H](c1c[nH]c2cccc(F)c12)[C@@H]1NC(=O)[C@@H]2C[C@H](F)CN2C(=O)CNC(=O)[C@H](Cc2ccc(C(=O)O)cc2)NC(=O)[C@H](Cc2ccncc2)NC(=O)[C@H](Cc2ccc(-c3ccc(C(=O)O)cc3)cc2)NC(=O)[C@H]2C[C@@H](Cc3ccncc3)CN2C(=O)CNC(=O)[C@H](CCN)NC(=O)[C@H](CCC(N)=O)NC(=O)[C@H](Cc2cncnc2)NC(=O)C(C)(C)NC(=O)[C@H](Cc2c[nH]c3ccccc23)NC(=O)[C@H](CCC(=O)O)NC(=O)C(C)(C)NC1=O) [SEQ ID NO: 14] | 0.035 |
| cyclo([Bip(4'-COOH)][4Pal][Phe(4-COOH)]G[Pro(cis-4-F)][Trp(βS-Me,4-F)][Aib]EW[Aib][Ala(4-Pyridazinyl)]Q[Dab]G[dPro(4R-Bzl(4-F))]) (SMILES C[C@@H](c1c[nH]c2cccc(F)c12)[C@@H]1NC(=O)[C@@H]2C[C@H](F)CN2C(=O)CNC(=O)[C@H](Cc2ccc(C(=O)O)cc2)NC(=O)[C@H](Cc2ccncc2)NC(=O)[C@H](Cc2ccc(-c3ccc(C(=O)O)cc3)cc2)NC(=O)[C@H]2C[C@@H](Cc3ccc(F)cc3)CN2C(=O)CNC(=O)[C@H](CCN)NC(=O)[C@H](CCC(N)=O)NC(=O)[C@H](Cc2ccnnc2)NC(=O)C(C)(C)NC(=O)[C@H](Cc2c[nH]c3ccccc23)NC(=O)[C@H](CCC(=O)O)NC(=O)C(C)(C)NC1=O) [SEQ ID NO: 115] | 0.023 |
| cyclo([F4ptCCA][4Pal][Phe(4-COOH)]G[Pro(cis-4-F)][Trp(βS-Me,4-F)][Aib]EW[Aib][Ala(pyrimidin-5-yl)]Q[Dab]G[dPro(4R-Bzl(4-F))]) [SEQ ID NO: 114] | 0.035 |
| cyclo([Bip(4'-COOH)][4Pal][Phe(4-COOH)]G[Pro(cis-4-F)][Trp(βS-Me,4-F)][Aib]EW[Aib][Ala(piperidin-4-yl)]Q[Dab]G[dPro(4R-Bzl(4-F))]) (SMILES C[C@@H](c1c[nH]c2cccc(F)c12)[C@@H]1NC(=O)[C@@H]2C[C@H](F)CN2C(=O)CNC(=O)[C@H](Cc2ccc(C(=O)O)cc2)NC(=O)[C@H](Cc2ccncc2)NC(=O)[C@H](Cc2ccc(-c3ccc(C(=O)O)cc3)cc2)NC(=O)[C@H]2C[C@@H](Cc3ccc(F)cc3)CN2C(=O)CNC(=O)[C@H](CCN)NC(=O)[C@H](CCC(N)=O)NC(=O)[C@H](CC2CCNCC2)NC(=O)C(C)(C)NC(=O)[C@H](Cc2c[nH]c3ccccc23)NC(=O)[C@H](CCC(=O)O)NC(=O)C(C)(C)NC1=O) [SEQ ID NO: 119] | 0.016 |
| cyclo([Bip(4'-COOH)][4Pal][Phe(4-COOH)]G[Pro(cis-4-F)][Trp(βS-Me,4-F)][Aib]EW[Aib][Ala(piperazin-1-yl)]Q[Dab]G[dPro(4R-Bzl(4-F))]) (SMILES C[C@@H](c1c[nH]c2cccc(F)c12)[C@@H]1NC(=O)[C@@H]2C[C@H](F)CN2C(=O)CNC(=O)[C@H](Cc2ccc(C(=O)O)cc2)NC(=O)[C@H](Cc2ccncc2)NC(=O)[C@H](Cc2ccc(-c3ccc(C(=O)O)cc3)cc2)NC(=O)[C@H]2C[C@@H](Cc3ccc(F)cc3)CN2C(=O)CNC(=O)[C@H](CCN)NC(=O)[C@H](CCC(N)=O)NC(=O)[C@H](CN2CCNCC2)NC(=O)C(C)(C)NC(=O)[C@H](Cc2c[nH]c3ccccc23)NC(=O)[C@H](CCC(=O)O)NC(=O)C(C)(C)NC1=O) [SEQ ID NO: 120] | 0.014 |

Source: US20260242419A1, “A CYCLIC PEPTIDE FOR TRAPPING INTERLEUKIN-1 BETA” (Merck Sharp & Dohme LLC, priority 2023, published 2026)
